In US20190262398, “TIM3 HOMING ENDONUCLEASE VARIANTS, COMPOSITIONS, AND METHODS OF USE” (bluebird bio, Inc., published 2019):

Experiments:
[1] = target: T1, TIM3_rd3.22 HE (I-OnuI variant) (Artificial (I-OnuI from Ophiostoma …)); assay: flow; yeast surface display substrate titration; stated as subnanomolar affinity; details: tags: yeast surface display
T1 chain: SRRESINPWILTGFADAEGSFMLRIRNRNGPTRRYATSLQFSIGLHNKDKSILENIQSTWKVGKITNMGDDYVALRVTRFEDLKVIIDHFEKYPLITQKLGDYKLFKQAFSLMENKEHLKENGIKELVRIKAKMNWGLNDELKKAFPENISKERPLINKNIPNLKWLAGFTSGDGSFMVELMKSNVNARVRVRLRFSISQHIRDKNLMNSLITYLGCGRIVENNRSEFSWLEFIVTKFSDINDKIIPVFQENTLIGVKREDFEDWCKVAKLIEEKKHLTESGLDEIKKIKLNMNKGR

[2] = target: T2, TIM3_rd3.22 HE (I-OnuI variant), mammalian expression (Artificial (I-OnuI from Ophiostoma …)); assay: cell_activity; HEK293T chromosomal mCherry reporter; approx 4-fold higher rate of mCherry cells after refinement
T2 chain: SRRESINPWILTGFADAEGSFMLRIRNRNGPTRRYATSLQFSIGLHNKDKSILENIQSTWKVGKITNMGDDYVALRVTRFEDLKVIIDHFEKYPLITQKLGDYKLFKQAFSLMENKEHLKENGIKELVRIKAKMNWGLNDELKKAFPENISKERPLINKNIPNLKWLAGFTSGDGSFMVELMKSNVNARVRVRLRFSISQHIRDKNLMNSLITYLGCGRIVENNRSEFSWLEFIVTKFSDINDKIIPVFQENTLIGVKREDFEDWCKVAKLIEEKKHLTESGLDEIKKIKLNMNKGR
Protocol: The activity of reprogrammed I-OnuI HEs that target exon 2 of the TIM3 gene was measured using a chromosomally integrated fluorescent reporter system (Certo et. al., 2011). Fully reprogrammed I-OnuI HEs that bind and cleave the TIM3 target sequence were cloned into mammalian expression plasmids and then individually transfected into a HEK 293T […] cell line that was reprogrammed to contain the TIM3 target sequence upstream of an out-of-frame gene encoding the fluorescent mCherry protein. Cleavage of the embedded target site by the HE and the subsequent accumulation of small insertions or deletions, caused by DNA repair via the non-homologous end joining (NHEJ) pathway, results in approximately one out of three repaired loci placing the fluorescent reporter gene back “in-frame”. mCherry fluorescence is therefore a readout of endonuclease activity at the chromosomally embedded target sequence. […] FIG. 3 (top panel).
A secondary I-OnuI variant library was generated by performing random mutagenesis on one of the reprogrammed I-OnuI HEs that targets the TIM3 target site identified in the initial reporter screen (TIM3_rd1.12, SEQ ID NO: 6). In addition, display-based flow sorting was performed under more stringent cleavage conditions in an effort to isolate variants with improved catalytic efficiency. FIG. 3 (middle panel). […]

B1: TIM3 exon 2 HE target site (dsDNA)
DNA 1: TGTCCAATAATTCACATCCCTT
DNA 2: AAGGGATGTGAATTATTGGACA
Kd [1]: < 1 nM
activity [2]: ~4 fold
